Data from US20250250321A1.

Target: immunoglobulin G (IgG) obtained from human serum (human)
Assay: human serum IgG (2 mg/mL) bound to Protein A on latex beads, washed, read by SDS-PAGE

- increase of binding activity compared to beads with the Protein A monomer: > 15%
Substance: Protein A polymer (UniStac linear multimeric polymer of Protein A) immobilized on latex beads
